For orientation: Kd means a measure of binding affinity in units of concentration. A word on the koff: it is the rate constant with which the complex falls apart. By kon is commonly meant a measure of how fast the partners come together.

In this experiment the target is T1, hK1 (human tissue kallikrein 1), recombinant (human, UniProt P06870 25-262).
T1 construct: Expressed in P. pastoris from KLK1 cDNA and purified; enzymatically active; also called KLK1; Recombinant (Pichia) Kallikrein
The experiment is described as follows: SPR.

B1: M0108-E10 (Fab, V domains shown)
VH: EVQLLESGGGLVQPGGSLRLSCAASGFTFSRYRMVWVRQAPGKGLEWVSSIYPSGGYTKYADSVKGRFTISRDNSKNTLYLQMNSLRAEDTAVYYCARVITYNNFDSWGQGTLVTVSS
VL: DIQMTQSPGTLSLSPGERATLSCRASQTVSSTYLAWYQQKPGQAPRLLIYGASSRATGIPDRFSGGGSGTDFTLTISRLEPEDFAVYYCQQYGSSPPRYTFGQGTKLEIKR
Consider B1, for which the Kd is 58.4 nM, the koff was 0.0134 s⁻¹ and the kon was found to be 230000 M⁻¹ s⁻¹.

B2: M0108-D11 (Fab, V domains shown)
VH: EVQLLESGGGLVQPGGSLRLSCAASGFTFSWYVMTWVRQAPGKGLEWVSVIYPSGGATKYADSVKGRFTISRDNSKNTLYLQMNSLRAEDTAVYYCARRGAGGMDVWGQGTTVTVSS
VL: AQSVLTQPASVSGSPGQSITISCTGTNTDVGGYNLVSWYQQHPGKAPKLIIYEVSNRPSGVSNRFSGSKSGNTASLTISGLQAEDEVDYYCGSYTSSSTHVFGSGTKVTVLG
Take B2: the Kd was 2.09 nM, the koff amounted to 0.00069 s⁻¹ and the on-rate (kon) was determined as 330000 M⁻¹ s⁻¹.

B3: M0102-C02 (Fab, V domains shown)
VH: EVQLLESGGGLVQPGGSLRLSCAASGFTFSHYLMHWVRQAPGKGLEWVSSIYPSGGKTQYADSVKGRFTISRDNSKNTLYLQMNSLRAEDTAVYYCARVFGYYDFWSGYPGAFDYWGQGTLVTVSS
VL: DIQMTQSPSSLSASVGDRVTITCRASQGISSSLAWYQQKPGKVPKLLIYAASTLQSGVPSRFSGSGSGTDFTLTISSLQPEDFATYYCQQSYSTPWTFGQGTKVEIKR
Regarding B3, the dissociation constant (Kd) was determined as 43.5 nM, the off-rate constant (koff) worked out at 0.00628 s⁻¹ and the kon came out at 144000 M⁻¹ s⁻¹.

B4: M0106-D06 (Fab, V domains shown)
VH: EVQLLESGGGLVQPGGSLRLSCAASGFTFSYYLMGWVRQAPGKGLEWVSSIGPSGGTTKYADSVKGRFTISRDNSKNTLYLQMNSLRAEDTAVYYCARRGLGAAFDYWGQGTLVTVSS
VL: DIQMTQSPSSVSASVGDRVTITCRASQGISSWLAWYQQKPGKAPKLLIYAASSLQSGVPSRFSGSGSGTDFTLTISSLQPEDFATYYCQQANSFPYTFGQGTKLEIKR
In the case of B4, the dissociation constant (Kd) worked out at 123 nM, the koff worked out at 0.019 s⁻¹ and the kon turned out to be 154000 M⁻¹ s⁻¹.

B5: M0138-A03 (Fab, V domains shown)
VH: EVQLLESGGGLVQPGGSLRLSCAASGFTFSFYLMFWVRQAPGKGLEWVSGIYPSGGQTVYADSVKGRFTISRDNSKNTLYLQMNSLRAEDTAVYYCARAIGAGSSFWGQGTLVTVSS
VL: DIQMTQSPSSVSASVGDRVTITCRASQGISSWLAWYQQKPGKAPKLLIYAASSLQSGVPSRFSGSGSGTDFTLTISSLQPEDFATYYCQQANSFPHTFGQGTKLEIKR
B5: the Kd was 1.71 nM, the koff came to 0.000325 s⁻¹ and the kon was 190000 M⁻¹ s⁻¹.

B6: M0110-D06 (Fab, V domains shown)
VH: EVQLLESGGGLVQPGGSLRLSCAASGFTFSWYRMAWVRQAPGKGLEWVSYIGPSGGSTSYADSVKGRFTISRDNSKNTLYLQMNSLRAEDTATYYCARVGTFYGMDVWGQGTTVTVSS
VL: DIQMTQSPSTLSASLGDRVIITCRASQGIRSWLAWYQQKPGKAPKLLIYAASSLQSGVPSRFSGSGSGTDFTLTISSLQPEDFATYYCQQSYSTPWTFGQGTKVEIKR
For B6, the Kd amounted to 232 nM, the koff worked out at 0.0175 s⁻¹ and the kon came to 75600 M⁻¹ s⁻¹.

B7: M0135-H01 (Fab, V domains shown)
VH: EVQLLESGGGLVQPGGSLRLSCAASGFTFSAYLMAWVRQAPGKGLEWVSSIRPSGGETRYADSVKGRFTISRDNSKNTLYLQMNSLRAEDTAVYYCTRDQKGYPDSSSFRRYYYYYGMDVWGQGTTVTVSS
VL: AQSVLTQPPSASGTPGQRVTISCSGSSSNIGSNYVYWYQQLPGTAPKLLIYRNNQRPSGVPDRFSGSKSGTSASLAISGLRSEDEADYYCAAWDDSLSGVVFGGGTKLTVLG
For the molecule B7, the Kd amounted to 2.03 nM, the koff is 0.000396 s⁻¹ and the kon was 195000 M⁻¹ s⁻¹.

B8: M0113-D05 (Fab, V domains shown)
VH: EVQLLESGGGLVQPGGSLRLSCAASGFTFSHYIMMWVRQAPGKGLEWVSSIYPSGGSTIYADSVKGRFTISRDNSKNTLYLQMNSLRAEDTAVYYCASATEGYYYGMDVWGQGTTVTVSS
VL: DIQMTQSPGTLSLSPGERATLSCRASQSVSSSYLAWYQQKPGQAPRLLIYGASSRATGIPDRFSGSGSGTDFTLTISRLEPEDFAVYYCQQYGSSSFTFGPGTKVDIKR
On to B8, for which the Kd was determined as 152 nM, the koff is 0.00214 s⁻¹ and the kon was 14100 M⁻¹ s⁻¹.

B9: M0104-D12 (Fab, V domains shown)
VH: EVQLLESGGGLVQPGGSLRLSCAASGFTFSHYAMFWVRQAPGKGLEWVSSIWPSGGKTMYADSVKGRFTISRDNSKNTLYLQMNSLRAEDTATYYCARGGSYLAFDIWGQGTMVTVSS
VL: DIQMTQSPSSLSASVGDRVTITCRASLSVSGYLNWYQHKPGRAPNLLIYATSSLQSGVPSRFSGSGSGTDFTLTVSSLQPEDLATYYCQQSYSSPYTFGQGTKVEIKG
Turning to B9, the Kd came to 61.3 nM, the koff stood at 0.0192 s⁻¹ and the kon is 314000 M⁻¹ s⁻¹.

B10: M0103-H07 (Fab, V domains shown)
VH: EVQLLESGGGLVQPGGSLRLSCAASGFTFSHYGMYWVRQAPGKGLEWVSSIYPSGGWTNYADSVKGRFTISRDNSKNTLYLQMNSLRAEDTAVYYCARRGSWGAFDIWGQGTMVTVSS
VL: DIQMTQSPSSLSASVGDRVAITCRASQSIDTYLNWYQQKPGKAPKLLIYAASKLEDGVPSRFSGSGTGTDFTLTIRSLQPEDFATYYCQPYNTYPITFGQGTRLEIKR
In the case of B10, the Kd is 85.7 nM, the koff turned out to be 0.0086 s⁻¹ and the on-rate constant (kon) came to 100000 M⁻¹ s⁻¹.

B11: M0132-C08 (Fab, V domains shown)
VH: EVQLLESGGGLVQPGGSLRLSCAASGFTFSLYFMTWVRQAPGKGLEWVSSISSSGGSTKYADSVKGRFTISRDNSKNTLYLQMNSLRAEDTAVYYCARGGQWLAFDYWGQGTLVTVSS
VL: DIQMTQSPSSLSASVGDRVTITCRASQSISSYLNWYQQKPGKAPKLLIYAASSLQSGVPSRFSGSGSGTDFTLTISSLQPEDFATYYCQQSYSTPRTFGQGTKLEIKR
On to B11, for which the dissociation constant (Kd) stood at 1.3 nM, the koff was determined as 0.000444 s⁻¹ and the kon came out at 342000 M⁻¹ s⁻¹.

B12: M0131-D01 (Fab, V domains shown)
VH: EVQLLESGGGLVQPGGSLRLSCAASGFTFSHYNMNWVRQAPGKGLEWVSVIYPSGGQTHYADSVKGRFTISRDNSKNTLYLQMNSLRAEDTAVYYCARRGIWHSFDIWGQGTMVTVSS
VL: DIQMTQSPGTLSLSPGERASLSCRASQSVSSNYLSWYQQKPGQAPRLLIYGTSNRASGIPVRFSGSGSGTDFTLTISRLEPEDFAVYYCQQYGGAPLFIFGPGTRVDIKR
On to B12, for which the Kd came out at 1.04 nM, the koff was 0.000325 s⁻¹ and the kon came to 311000 M⁻¹ s⁻¹.

B13: M0113-G11 (Fab, V domains shown)
VH: EVQLLESGGGLVQPGGSLRLSCAASGFTFSHYMMQWVRQAPGKGLEWVSGIGPSGGWTKYADSVKGRFTISRDNSKNTLYLQMNSLRAEDTALYYCARLNYGDYVWGQGTLVTVSS
VL: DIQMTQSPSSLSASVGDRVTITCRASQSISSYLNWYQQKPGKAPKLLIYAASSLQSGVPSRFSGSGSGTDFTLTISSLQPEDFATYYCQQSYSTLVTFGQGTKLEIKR
B13: the Kd is 42.5 nM, the koff came to 0.0121 s⁻¹ and the kon is 286000 M⁻¹ s⁻¹.

B14: M0116-A08 (Fab, V domains shown)
VH: EVQLLESGGGLVQPGGSLRLSCAASGFTFSYYMMGWVRQAPGKGLEWVSSIYTSGGYTKYADSVKGRFTISRDNSKNTLYLQMNSLRAEDTAVYYCARASIYYGMDVWGQGTTVTVSS
VL: DIQMTQSPGTLSLSPGERATLSCRASQSVSNSYLAWYQQRPGQAPRLLIYGASSRATGIPDRFSGSGSGTEFTLTISRLEPEDFAVYYCQQFGSSTGYTFGQGTKLELKR
Take B14: the Kd turned out to be 88.3 nM, the off-rate constant (koff) was 0.00994 s⁻¹ and the kon turned out to be 113000 M⁻¹ s⁻¹.

B15: M0124-C04 (Fab, V domains shown)
VH: EVQLLESGGGLVQPGGSLRLSCAASGFTFSWYLMGWVRQAPGKGLEWVSVIGPSGGLTKYADSVKGRFTISRDNSKNTLYLQMNSLRAEDTAVYYCARFRGYYGMDVWGQGTTVTVSS
VL: not shown
As to B15, the Kd was found to be 372 nM, the koff was 0.286 s⁻¹ and the kon is 768000 M⁻¹ s⁻¹.

B16: M0116-E08 (Fab, V domains shown)
VH: EVQLLESGGGLVQPGGSLRLSCAASGFTFSRYPMIWVRQAPGKGLEWVSVIYPSGGMTKYADSVKGRFTISRDNSKNTLYLQMNSLRAEDTAVYYCARVGSYGSLGYWGQGTLVTVSS
VL: DIQMTQSPSSLSASVGDRVTITCLASQSISSYLNWYQQKPGKAPKLLIYDASSLESGVPSRFSGSGSGTDFTLTISSLQPEDFAIYYCQQFNGYPPITFGQGTRLEIKR
Regarding B16, the Kd stood at 72.7 nM, the koff amounted to 0.0164 s⁻¹ and the kon was 225000 M⁻¹ s⁻¹.

B17: M0102-D07 (Fab, V domains shown)
VH: EVQLLESGGGLVQPGGSLRLSCAASGFTFSRYWMWWVRQAPGKGLEWVSSIGPSGGATRYADSVKGRFTISRDNSKNTLYLQMNSLRAEDTAVYYCTTGSAGNWGQGTLVTVSS
VL: DIQMTQSPGTLSLSPGERATLSCGASQSVSTTYIAWYQHKPGQPPRLLIYGASNRATGIPDRFRGSGSGTDFTLTISRLEPEDFAVYYCQQYGSSPYTFGQGTKLEIKR
Consider B17, for which the Kd is 78.6 nM, the koff worked out at 0.0122 s⁻¹ and the kon came to 155000 M⁻¹ s⁻¹.

B18: M0112-D04 (Fab, V domains shown)
VH: EVQLLESGGGLVQPGGSLRLSCAASGFTFSHYVMVWVRQAPGKGLEWVSGIRSSGGVTAYADSVKGRFTISRDNSKNTLYLQMNSLRAEDTAMYYCARVGVWYGMDVWGQGTTVTVSS
VL: AQSALTQPLSVSVALGQTARITCGGNNIGSKNVHWYQQKPGQAPVLVIYRDSNRPSGIPERFSGSNSGNTATLTISGAQAGDEADYYCQVWDSSTVFGGGTKLTVLG
Take B18: the Kd was 54.2 nM, the koff worked out at 0.00956 s⁻¹ and the kon turned out to be 176000 M⁻¹ s⁻¹.

B19: M0114-G09 (Fab, V domains shown)
VH: EVQLLESGGGLVQPGGSLRLSCAASGFTFSHYAMDWVRQAPGKGLEWVSVIYSSGGKTTYADSVKGRFTISRDNSKNTLYLQMNSLRAEDTAMYYCARVGVWYGMDVWGQGTTVTVSS
VL: AQSALTQPASVSGSPGQSITISCTGTSSDVGSYKLVSWYQQHPGKAPKLMIYEGSKRPSGVSNRFSGSKSGNTASLTISGLQAEDEADYYCCSYAGSSTWVFGGGTKLTVLG
For the molecule B19, the Kd is 1.46 nM, the koff turned out to be 0.00062 s⁻¹ and the kon is 424000 M⁻¹ s⁻¹.

B20: M0131-B05 (Fab, V domains shown)
VH: EVQLLESGGGLVQPGGSLRLSCAASGFTFSHYVMSWVRQAPGKGLEWVSYIYPSGGKTHYADSVKGRFTISRDNSKNTLYLQMNSLRAEDTAVYYCARVGVWYGMDVWGQGTTVTVSS
VL: AQYELTQPASVSGSPGQSITISCTGTSSDIGAYNYVSWYQQHPGKAPKLMIYDVSNRPSGVSNRFSGSKSGNTASLTISGLQAEDEADYYCSSYRSSSLMFGGGTKLTVLG
Consider B20, for which the Kd was 0.46 nM, the koff turned out to be 0.000117 s⁻¹ and the kon stood at 255000 M⁻¹ s⁻¹.

The values above are taken from patent US7329737 (DYAX, dated 2008).
